Measurements as given in paper PMC8391104 (2021).
Residue numbers refer to the chain shown, from its start. Where no end group is shown, it is not given here. [ ]: non-standard residue; d: D form. pT = C[C@@H](OP(=O)(O)O)[C@H](N)C(=O)O; pS = N[C@@H](COP(=O)(O)O)C(=O)O

Columns and labels:
Test in all cases: ITC
[1] = target: T1, Mad1^CTD R650A (human, UniProt Q9Y6D9 597-718, R650A)
T1 sequence: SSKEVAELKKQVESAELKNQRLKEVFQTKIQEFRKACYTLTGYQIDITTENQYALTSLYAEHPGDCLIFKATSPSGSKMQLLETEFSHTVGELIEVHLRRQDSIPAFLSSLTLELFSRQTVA

[2] = target: T2, Mad1CTD K614A (Homo sapiens)
T2 chain: T1 sequence with K18A, A54R

[3] = target: T3, Mad1^CTD I643A (human, UniProt Q9Y6D9 597-718, I643A)
T3 sequence: T1 sequence with I47A, A54R

[4] = target: T4, Mad1^CTD Q627A (human, UniProt Q9Y6D9 597-718, Q627A)
T4 sequence: T1 sequence with Q31A, A54R

Kd [1]: 1100 nM | Kd [2]: 2400 nM | Kd [3]: 1400 nM | Kd [4]: 2400 nM
Binder: KVQP[pS]P[pT]VHTKEALGFIMNMFQAPTS [doubly phosphorylated Bub1^CD1 peptide (pSer459-pThr461)]
